Experimental data published in patent US20070274915.

T1: bacterially-expressed HHR23A substrate, P54725
T1 chain: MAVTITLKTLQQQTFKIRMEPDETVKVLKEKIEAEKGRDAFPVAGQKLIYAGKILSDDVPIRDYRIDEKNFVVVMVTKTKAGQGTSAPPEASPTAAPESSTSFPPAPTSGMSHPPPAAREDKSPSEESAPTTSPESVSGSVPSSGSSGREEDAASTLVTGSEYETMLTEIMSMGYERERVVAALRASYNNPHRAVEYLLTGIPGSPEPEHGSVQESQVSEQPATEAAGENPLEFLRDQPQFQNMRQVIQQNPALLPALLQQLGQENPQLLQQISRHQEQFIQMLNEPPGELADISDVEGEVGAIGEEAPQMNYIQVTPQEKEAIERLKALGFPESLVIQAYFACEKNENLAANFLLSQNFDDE

B1: myc-tagged Nedd4 isoform (accession number KIAA0093) (protein)
chain: MATCAVEVFGLLEDEENSRIVRVRVIAGIGLAKKDILGASDPYVRVTLYDPMNGVLTSVQTKTIKKSLNPKWNEEILFRVHPQQHRLLFEVFDENRLTRDDFLGQVDVPLYPLPTENPRLERPYTFKDFVLHPRSHKSRVKGYLRLKMTYLPKTSGSEDDNAEQAEELEPGWVVLDQPDAACHLQQQQEPSPLPPGWEERQDILGRTYYVNHESRRTQWKRPTPQDNLTDAENGNIQLQAQRAFTTRRQISEETESVDNRESSENWEIIREDEATMYSNQAFPSPPPSSNLDVPTHLAEELNARLTIFGNSAVSQPASSSNHSSRRGSLQAYTFEEQPTLPVLLPTSSGLPPGWEEKQDERGRSYYVDHNSRTTTWTKPTVQATVETSQLTSSQSSAGPQSQASTSDSGQQVTQPSEIEQGFLPKGWEVRHAPNGRPFFIDHNTKTTTWEDPRLKIPAHLRGKTSLDTSNDLGPLPPGWEERTHTDGRIFYINHNIKRTQWEDPRLENVAITGPAVPYSRDYKRKYEFFRRKLKKQNDIPNKFEMKLRRATVLEDSYRRIMGVKRADFLKARLWIEFDGEKGLDYGGVAREWFFLISKEMFNPYYGLFEYSATDNYTLQINPNSGLCNEDHLSYFKFIGRVAGMAVYHGKLLDGFFIRPFYKMMLHKPITLHDMESVDSEYYNSLRWILENDPTELDLRFIIDEELFGQTHQHELKNGGSEIVVTNKNKKEYIYLVIQWRFVNRIQKQMAAFKEGFFELIPQDLIKIFDENELELLMCGLGDVDVNDWREHTKYKNGYSANHQVIQWFWKAVLMMDSEKRIRLLQFVTGTSRVPMNGFAELYGSNGPQSFTVEQWGTPEKLPRAHTCFNRLDLPPYESFEELWDKLQMAIENTQGFDGVD
B2: catalytically inactive Nedd4 protein, bearing an alanine substitution at the active cysteine of the HECT domain (protein)
chain: MATCAVEVFGLLEDEENSRIVRVRVIAGIGLAKKDILGASDPYVRVTLYDPMNGVLTSVQTKTIKKSLNPKWNEEILFRVHPQQHRLLFEVFDENRLTRDDFLGQVDVPLYPLPTENPRLERPYTFKDFVLHPRSHKSRVKGYLRLKMTYLPKTSGSEDDNAEQAEELEPGWVVLDQPDAACHLQQQQEPSPLPPGWEERQDILGRTYYVNHESRRTQWKRPTPQDNLTDAENGNIQLQAQRAFTTRRQISEETESVDNRESSENWEIIREDEATMYSNQAFPSPPPSSNLDVPTHLAEELNARLTIFGNSAVSQPASSSNHSSRRGSLQAYTFEEQPTLPVLLPTSSGLPPGWEEKQDERGRSYYVDHNSRTTTWTKPTVQATVETSQLTSSQSSAGPQSQASTSDSGQQVTQPSEIEQGFLPKGWEVRHAPNGRPFFIDHNTKTTTWEDPRLKIPAHLRGKTSLDTSNDLGPLPPGWEERTHTDGRIFYINHNIKRTQWEDPRLENVAITGPAVPYSRDYKRKYEFFRRKLKKQNDIPNKFEMKLRRATVLEDSYRRIMGVKRADFLKARLWIEFDGEKGLDYGGVAREWFFLISKEMFNPYYGLFEYSATDNYTLQINPNSGLCNEDHLSYFKFIGRVAGMAVYHGKLLDGFFIRPFYKMMLHKPITLHDMESVDSEYYNSLRWILENDPTELDLRFIIDEELFGQTHQHELKNGGSEIVVTNKNKKEYIYLVIQWRFVNRIQKQMAAFKEGFFELIPQDLIKIFDENELELLMCGLGDVDVNDWREHTKYKNGYSANHQVIQWFWKAVLMMDSEKRIRLLQFVTGTSRVPMNGFAELYGSNGPQSFTVEQWGTPEKLPRAHTCFNRLDLPPYESFEELWDKLQMAIENTQGFDGVD
B3: E6AP (purified, full-length) (protein)
chain: MKRAAAKHLIERYYHQLTEGCGNEACTNEFCASCPTFLRMDNNAAAIKALELYKINAKLCDPHPSKKGASSAYLENSKGAPNNSCSEIKMNKKGARIDFKDVTYLTEEKVYEILELCREREDYSPLIRVIGRVFSSAEALVQSFRKVKQHTKEELKSLQAKDEDKDEDEKEKAACSAAAMEEDSEASSSRIGDSSQGDNNLQKLGPDDVSVDIDAIRRVYTRLLSNEKIETAFLNALVYLSPNVECDLTYHNVYSRDPNYLNLFIIVMENRNLHSPEYLEMALPLFCKAMSKLPLAAQGKLIRLWSKYNADQIRRMMETFQQLITYKVISNEFNSRNLVNDDDAIVAASKCLKMVYYANVVGGEVDTNHNEEDDEEPIPESSELTLQELLGEERRNKKGPRVDPLETELGVKTLDCRKPLIPFEEFINEPLNEVLEMDKDYTFFKVETENKFSFMTCPFILNAVTKNLGLYYDNRIRMYSERRITVLYSLVQGQQLNPYLRLKVRRDHIIDDALVRLEMIAMENPADLKKQLYVEFEGEQGVDEGGVSKEFFQLVVEEIFNPDIGMFTYDESTKLFWFNPSSFETEGQFTLIGIVLGLAIYNNCILDVHFPMVVYRKLMGKKGTFRDLGDSHPVLYQSLKDLLEYEGNVEDDMMITFQISQTDLFGNPMMYDLKENGDKIPITNENRKEFVNLYSDYILNKSVEKQFKAFRRGFHMVTNESPLKYLFRPEEIELLICGSRNLDFQALEETTEYDGGYTRDSVLIREFWEIVHSFTDEQKRLFLQFTTGTDRAPVGGLGKLKMIIAKNGPDTERLPTSHTCFNVLLLPEYSSKEKLKERLLKAITYAKGFGML

Key:
[1] = target: AU-tagged PLC-γ1
[2] = target: T1, bacterially-expressed HHR23A substrate, …

Chain of AU-tagged PLC-γ1 (P19174 2-1290): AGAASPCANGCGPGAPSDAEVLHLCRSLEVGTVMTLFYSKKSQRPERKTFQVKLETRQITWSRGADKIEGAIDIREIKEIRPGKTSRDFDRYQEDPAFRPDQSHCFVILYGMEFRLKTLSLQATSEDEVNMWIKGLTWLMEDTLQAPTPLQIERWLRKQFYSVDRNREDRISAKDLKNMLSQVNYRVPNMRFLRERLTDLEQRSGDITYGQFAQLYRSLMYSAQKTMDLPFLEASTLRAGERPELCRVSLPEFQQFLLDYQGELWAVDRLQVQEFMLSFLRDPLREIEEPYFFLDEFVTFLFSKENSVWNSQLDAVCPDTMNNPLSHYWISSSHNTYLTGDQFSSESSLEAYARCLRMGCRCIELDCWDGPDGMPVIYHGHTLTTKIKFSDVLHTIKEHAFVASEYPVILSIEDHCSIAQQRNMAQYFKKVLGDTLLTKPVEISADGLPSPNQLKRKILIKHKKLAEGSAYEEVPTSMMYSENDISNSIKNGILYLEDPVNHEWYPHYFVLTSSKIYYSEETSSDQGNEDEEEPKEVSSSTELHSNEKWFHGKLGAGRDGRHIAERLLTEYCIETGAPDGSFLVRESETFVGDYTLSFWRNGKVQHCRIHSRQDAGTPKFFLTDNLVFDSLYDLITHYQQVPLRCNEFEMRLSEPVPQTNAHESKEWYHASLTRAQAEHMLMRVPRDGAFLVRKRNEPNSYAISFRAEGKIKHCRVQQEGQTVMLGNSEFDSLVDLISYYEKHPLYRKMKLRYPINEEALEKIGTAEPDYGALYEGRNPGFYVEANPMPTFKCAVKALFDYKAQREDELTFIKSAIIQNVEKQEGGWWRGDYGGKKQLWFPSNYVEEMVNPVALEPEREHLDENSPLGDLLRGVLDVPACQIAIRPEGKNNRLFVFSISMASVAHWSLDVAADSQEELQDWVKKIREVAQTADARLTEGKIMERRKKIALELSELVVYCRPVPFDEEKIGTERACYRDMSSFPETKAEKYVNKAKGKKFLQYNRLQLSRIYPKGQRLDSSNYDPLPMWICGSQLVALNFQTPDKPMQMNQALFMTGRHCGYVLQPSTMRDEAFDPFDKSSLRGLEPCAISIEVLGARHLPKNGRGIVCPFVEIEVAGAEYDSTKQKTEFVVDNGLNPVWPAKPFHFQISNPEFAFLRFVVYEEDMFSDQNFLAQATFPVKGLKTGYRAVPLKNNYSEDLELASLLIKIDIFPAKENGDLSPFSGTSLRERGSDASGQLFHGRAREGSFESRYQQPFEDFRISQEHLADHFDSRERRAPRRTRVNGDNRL

Protein | ionomycin-dependent degradation of PLC-γ1 (HEK 293 transfection, immunoblot) [1] | trans-ubiquitination of HHR23A (in vitro reaction with E1, E2 UbcH7, ubiquitin and ATP; SDS-PAGE, anti-HHR23A immunoblot) [2]
B1 | Itch and Nedd4 both facilitated the ionomycin-dependent degradation of PLC-γ1 | –
B2 | did not promote this decrease (FIG. 17D; lanes 5, 6), but prevented the small but significant decrease in PLC-γ1 levels observed in ionomycin-treated cells | –
B3 | – | time-dependent increase in the amount of ubiquitin-conjugated HHR23A substrate
